Results taken from the supplement of paper PMC9112550, “Optimization of the antimicrobial peptide Bac7 by deep mutational scanning” (BMC Biology, 2022).

System: Escherichia coli TOP10
Test: shrunken log2 fold change of peptide-encoding DNA abundance (4.5 h post-induction vs induction); higher = less antimicrobial activity (less host growth inhibition)
Settings: time post-induction: 4.5 h; library: site-saturation at positions 5, 18, 19, 20
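Further: peptides expressed intracellularly from a pBAD plasmid library in pooled LB shake-flask culture, induced with 0.3% L-arabinose, DNA abundance read by NGS, three biological replicates, DESeq2 with apeglm shrinkage.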

RRIRLRPPRLPRPRPRPDMVPRP
shrunken log2 fold change: -0.175

RRIRLRPPRLPRPRPRPDMWPRP
shrunken log2 fold change: -0.0873

RRIRLRPPRLPRPRPRPDNLPRP
shrunken log2 fold change: -0.186

RRIRLRPPRLPRPRPRPDSFPRP
shrunken log2 fold change: -0.0169

RRIRLRPPRLPRPRPRPDSKPRP
shrunken log2 fold change: -0.24

RRIRLRPPRLPRPRPRPDVYPRP
shrunken log2 fold change: -0.0227

RRIRLRPPRLPRPRPRPDWHPRP
shrunken log2 fold change: -0.264

RRIRLRPPRLPRPRPRPDWSPRP
shrunken log2 fold change: -0.124

RRIRLRPPRLPRPRPRPDWVPRP
shrunken log2 fold change: -0.0945

RRIRLRPPRLPRPRPRPEANPRP
shrunken log2 fold change: 0.075

RRIRLRPPRLPRPRPRPEAPPRP
shrunken log2 fold change: 0.462

RRIRLRPPRLPRPRPRPECMPRP
shrunken log2 fold change: 0.442

RRIRLRPPRLPRPRPRPECPPRP
shrunken log2 fold change: 0.0712

RRIRLRPPRLPRPRPRPECQPRP
shrunken log2 fold change: -0.00577

RRIRLRPPRLPRPRPRPEHAPRP
shrunken log2 fold change: -0.00513

RRIRLRPPRLPRPRPRPEHDPRP
shrunken log2 fold change: 0.0235

RRIRLRPPRLPRPRPRPEHGPRP
shrunken log2 fold change: 0.00489

RRIRLRPPRLPRPRPRPEHKPRP
shrunken log2 fold change: -0.0822

RRIRLRPPRLPRPRPRPEHLPRP
shrunken log2 fold change: -0.118

RRIRLRPPRLPRPRPRPEIQPRP
shrunken log2 fold change: -0.0217

RRIRLRPPRLPRPRPRPEKVPRP
shrunken log2 fold change: -0.0389

RRIRLRPPRLPRPRPRPELMPRP
shrunken log2 fold change: 0.0527

RRIRLRPPRLPRPRPRPEMCPRP
shrunken log2 fold change: 0.0636

RRIRLRPPRLPRPRPRPEMEPRP
shrunken log2 fold change: -0.0177

RRIRLRPPRLPRPRPRPEMKPRP
shrunken log2 fold change: -0.169

RRIRLRPPRLPRPRPRPENLPRP
shrunken log2 fold change: 0.0256

RRIRLRPPRLPRPRPRPEQSPRP
shrunken log2 fold change: -0.0314

RRIRLRPPRLPRPRPRPEQTPRP
shrunken log2 fold change: -0.000687

RRIRLRPPRLPRPRPRPEQWPRP
shrunken log2 fold change: -0.00018

RRIRLRPPRLPRPRPRPESKPRP
shrunken log2 fold change: 0.286

RRIRLRPPRLPRPRPRPETAPRP
shrunken log2 fold change: 0.325

RRIRLRPPRLPRPRPRPETQPRP
shrunken log2 fold change: 0.00473

RRIRLRPPRLPRPRPRPETRPRP
shrunken log2 fold change: 0.0057

RRIRLRPPRLPRPRPRPEVMPRP
shrunken log2 fold change: 0.0474

RRIRLRPPRLPRPRPRPEVYPRP
shrunken log2 fold change: 0.0314

RRIRLRPPRLPRPRPRPEWAPRP
shrunken log2 fold change: -0.0233

RRIRLRPPRLPRPRPRPEWEPRP
shrunken log2 fold change: 0.0256

RRIRLRPPRLPRPRPRPEWPPRP
shrunken log2 fold change: 0.549

RRIRLRPPRLPRPRPRPFCRPRP
shrunken log2 fold change: 0.0702

RRIRLRPPRLPRPRPRPFFFPRP
shrunken log2 fold change: 0.343

RRIRLRPPRLPRPRPRPFGMPRP
shrunken log2 fold change: -0.205

RRIRLRPPRLPRPRPRPFGSPRP
shrunken log2 fold change: -0.0744

RRIRLRPPRLPRPRPRPFGTPRP
shrunken log2 fold change: -0.424

RRIRLRPPRLPRPRPRPFHRPRP
shrunken log2 fold change: -0.246

RRIRLRPPRLPRPRPRPFLGPRP
shrunken log2 fold change: -0.0654

RRIRLRPPRLPRPRPRPFMHPRP
shrunken log2 fold change: -0.326

RRIRLRPPRLPRPRPRPFPMPRP
shrunken log2 fold change: -0.312

RRIRLRPPRLPRPRPRPFPNPRP
shrunken log2 fold change: 0.203

RRIRLRPPRLPRPRPRPFPWPRP
shrunken log2 fold change: -0.0836

RRIRLRPPRLPRPRPRPFQFPRP
shrunken log2 fold change: -0.255

RRIRLRPPRLPRPRPRPFQHPRP
shrunken log2 fold change: -0.175

RRIRLRPPRLPRPRPRPFQIPRP
shrunken log2 fold change: -0.109

RRIRLRPPRLPRPRPRPFQRPRP
shrunken log2 fold change: -0.0382

RRIRLRPPRLPRPRPRPFRKPRP
shrunken log2 fold change: 0.0823

RRIRLRPPRLPRPRPRPFRRPRP
shrunken log2 fold change: -0.0943

RRIRLRPPRLPRPRPRPFTHPRP
shrunken log2 fold change: -0.342

RRIRLRPPRLPRPRPRPFVDPRP
shrunken log2 fold change: 0.00121

RRIRLRPPRLPRPRPRPFVFPRP
shrunken log2 fold change: -0.337

RRIRLRPPRLPRPRPRPFVVPRP
shrunken log2 fold change: -0.236

RRIRLRPPRLPRPRPRPFWFPRP
shrunken log2 fold change: 0.0715

RRIRLRPPRLPRPRPRPFWHPRP
shrunken log2 fold change: -0.0379

RRIRLRPPRLPRPRPRPFYWPRP
shrunken log2 fold change: 0.228

RRIRLRPPRLPRPRPRPGAFPRP
shrunken log2 fold change: -0.0131

RRIRLRPPRLPRPRPRPGAWPRP
shrunken log2 fold change: 0.0481

RRIRLRPPRLPRPRPRPGCIPRP
shrunken log2 fold change: -0.346

RRIRLRPPRLPRPRPRPGDDPRP
shrunken log2 fold change: 0.431

RRIRLRPPRLPRPRPRPGEHPRP
shrunken log2 fold change: -0.145

RRIRLRPPRLPRPRPRPGEWPRP
shrunken log2 fold change: -0.00947

RRIRLRPPRLPRPRPRPGGCPRP
shrunken log2 fold change: 0.177

RRIRLRPPRLPRPRPRPGGNPRP
shrunken log2 fold change: -0.0421

RRIRLRPPRLPRPRPRPGHMPRP
shrunken log2 fold change: -0.236

RRIRLRPPRLPRPRPRPGHTPRP
shrunken log2 fold change: 0.183

RRIRLRPPRLPRPRPRPGKIPRP
shrunken log2 fold change: -0.125

RRIRLRPPRLPRPRPRPGKWPRP
shrunken log2 fold change: 0.121

RRIRLRPPRLPRPRPRPGLAPRP
shrunken log2 fold change: 0.164
